# Assay results taken from publication PMC3299833.
# Key:
# [1] = target: Pyruvate kinase isoform M2 (PKM2), endogenous (human (endogenous in SW620 and SW480)) (UniProt P14618); experiment: SEC
# [2] = target: E. coli expressed recombinant PKM2 (rPKM2) (human) (UniProt P14618); experiment: SEC
# E. coli expressed recombinant PKM2 (rPKM2), P14618 1-531 (enzyme; other documents disagree on this pair), sequence (P14618 whole entry): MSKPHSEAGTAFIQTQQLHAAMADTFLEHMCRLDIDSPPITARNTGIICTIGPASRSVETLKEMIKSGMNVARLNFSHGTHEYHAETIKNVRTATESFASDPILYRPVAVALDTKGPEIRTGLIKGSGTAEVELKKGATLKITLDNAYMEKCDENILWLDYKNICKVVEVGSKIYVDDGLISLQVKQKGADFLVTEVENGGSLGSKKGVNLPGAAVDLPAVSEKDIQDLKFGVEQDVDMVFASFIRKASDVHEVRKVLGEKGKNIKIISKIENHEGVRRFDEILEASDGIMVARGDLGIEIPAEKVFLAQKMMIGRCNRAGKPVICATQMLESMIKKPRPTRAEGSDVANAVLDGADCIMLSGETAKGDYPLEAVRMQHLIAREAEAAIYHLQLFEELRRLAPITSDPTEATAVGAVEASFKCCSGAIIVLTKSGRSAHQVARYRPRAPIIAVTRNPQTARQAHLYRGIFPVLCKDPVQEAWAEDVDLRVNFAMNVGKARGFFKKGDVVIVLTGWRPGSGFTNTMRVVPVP
# Pyruvate kinase isoform M2 (PKM2), endogenous, P14618 1-531 (enzyme; other documents disagree on this pair), sequence (P14618 whole entry, canonical isoform): as the sequence (P14618 whole entry) above
Substance,stoichiometry N [1],stoichiometry N [2]
"Pyruvate kinase isoform M2 (PKM2), endogenous, P14618 1-531 (enzyme; other documents disagree on this pair)",2,
"E. coli expressed recombinant PKM2 (rPKM2), P14618 1-531 (enzyme; other documents disagree on this pair)",,2
